Assay results from patent publication US20230121197A1, “ANTIBODIES SPECIFICALLY BINDING THE CARBOXYMETHYLATED CATALYTIC SUBUNIT OF PROTEIN PHOSPHATASE 2A” (Medizinische Universität Wien, priority 2020, published 2023).

How the values were obtained:
[1] = molecular target: PP2Ac C-terminal peptide pT304-meL309, ac-HVTRRpTPDYFL-CH3 (human); experiment: ELISA, peptide dilution series, supernatant 1:50
[2] = molecular target: T1, PP4c C-terminal peptide meL307, ac-PSKKPVADYFL-CH3 (α-carboxymethylated) (human, SMILES …); experiment: SPR (Biacore T200), antibody captured, peptide 50-800 nM as analyte, steady state analysis, 25 °C; SPR steady state; antibody captured at 50 µg/ml, PP4 Me peptide 50-800 nM as analyte
T1 construct: also called mePP4c; PP4 Me
T1 peptide: Ac-PSKKPVADYFL-OMe
Procedure: The differential affinity of anti-carboxymethylated PP2Ac antibodies, 7C10-C5 and 2A10, to carboxymethylated PP2A catalytic subunit versus noncarboxymethylated PP2A catalytic subunit was determined by surface plasmon resonance (SPR) on a Biacore T200 (GE Healthcare) at the Core Facility Biomolecular & Cellular Analysis (University of Natural Resources and Life Sciences Vienna BOKU). The affinity of 7C10-C5 for carboxymethylated and noncarboxymethylated catalytic subunit of PP4 (PP4c), a PP2A-related phosphatase, was also determined.
Series S Sensor Chip CM5 (GE Healthcare, 10296958) Flow cells (e.g. Flow cells 3 and 4 for the data shown in Table 5 and FIG. 32) were coated with 30 μg/mL anti-mouse IgG antibody (in immobilization buffer) using the mouse antibody capture kit (GE Healthcare, BR-1008-38, Lot 10294578) via amine coupling according to the manufacturer's protocol (i.e. https://www.cytivalifesciences. com/en/us/shop/protein-analysis/spr-lab el-free-analysis/capture-reagents/mouse-antibody-capture-kit-p-05986). The immobilisation levels obtained were 11620.2 RU (Flow cell 1), 10836.5 RU (Flow cell 2), 11605.9 RU (Flow cell 3) and 11333.9 RU (Flow cell 4), and thus were within the specifications. […]
SPR experiments were performed with the BiacoreT200 instrument (Cytiva). […] The sensorgrams obtained were analyzed with BiacoreT200 Evaluation Software (version 3.1).

B1: 7C10-C5 monoclonal antibody (antibody, V domains shown)
VH: DVQLQESGPGLVKPSQSLSLTCSVTGYSITSGYYWNWIRQFPGNKLEWMGYISYDGSNNYNPSLKNRISITRDTSKNQFFLKLNSVTTEDTATYYCAGRFAYWGQGTLVTVSA
VL: DVLMTQTPLSLPVSLGDQASISCRSSQSIVHSNGNTYLEWYLQKPGQSPKLLIYKVSNRFSGVPDRFSGSGSGTDFTLKINRVEAEDLGVYYCFQGSHVPWTFGGGTKLEIK
notes: Used as hybridoma culture supernatant (ELISA, Western blot, IHC) or at 50 µg/mL (SPR); also called 7C10 X63; clone 7C10-C5
fold detection difference against the carboxymethylated peptide (meL309) at lower peptide concentrations [1]: 4 fold
Kd [2]: 132 nM
